From article doi:10.1101/2022.07.27.501708 (bioRxiv, 2022)

B1: EH3 IgG (antibody, V domains shown)
VH: EVQLVESGGGLVQPGGSLRLSCAASGITVSSNYMTWVRQAPGKGLEWVSVIYSGGSTFYADSVRGRFTISRDNSKNTLYLQMNSLRAEDTAVYYCARDLEMAGAFDIWGQGTMVTVSS
VL: not shown
B2: EH8 IgG (antibody, V domains shown)
VH: QVQLVQSGAEVKKPGASVKVSCKASGYTFSSYGISWVRQAPGQGLEWMGWISPYNGNTKYPQKFQGRVTMTTDTSTNTAYMELRSLRSDDTAVYYCARDLELGGGFDYWGQGTLVTVSS
VL: QSALTQPASVSGSPGQSITISCTGTSSDVGSYNLVSWYQQHPDKAPKFMIYEGTKRPSGVSNRFSGSKSGNTASLTISGLQAEDEADYYCCSYAGNSTWVFGGGTKLTVL

Target: SARS-CoV-2 WT RBD (SPR analyte) (SARS-CoV-2, Wuhan-Hu-1, UniProt P0DTC2)
Experiment: SPR

| Binder | Kd [nM] | kon [M⁻¹ s⁻¹] |
| --- | --- | --- |
| B1 | 0.83 to 2.79 | 83200 to 274000 |
| B2 | 1.3 to 7.22 | 403000 to 837000 |
